# Assay results: paper PMC13293227
# T1: GST-ZAKα 701-800 (Homo sapiens, UniProt Q9NYL2 701-800)
# T1 sequence: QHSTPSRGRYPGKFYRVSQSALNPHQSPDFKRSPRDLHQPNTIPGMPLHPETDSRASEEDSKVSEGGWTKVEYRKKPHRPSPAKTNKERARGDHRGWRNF
# Target: T1, GST-ZAKα 701-800
# Experiment: EMSA; supershift with GST antibody; EMSA: 20 mM HEPES pH 7.6, 3 mM MgCl2, 40 mM KCl, 5% glycerol, 2 mM DTT, 100 fmol probe in 20 µl, 20 min on ice; 4% native PAGE, 0.25x TBE
# Conditions: protein: recombinant; tags: GST; label: 5'-IRDye700; single strand, seemingly unstructured
binder,measurement,value
AGCUUAGGAAUAUCAAUGUUAAGUAG (ssRNA) [ARE-IRDye700],binding result,binds
